Reference: US20220411517A1 (LEO PHARMA A S, published 2022)

T1: human IL1RAcP domain 3 (AG-12127) (human)
T1 construct: also called domain 3 of human IL-1RAcP
T1 chain: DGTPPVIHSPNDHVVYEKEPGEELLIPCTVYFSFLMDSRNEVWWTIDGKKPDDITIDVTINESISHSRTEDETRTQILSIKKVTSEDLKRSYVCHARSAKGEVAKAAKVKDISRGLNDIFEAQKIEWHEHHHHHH

T2: human IL1RAcP domain 1 (AG-12335) (human)
T2 construct: also called domain 1 of human IL-1RAcP
T2 chain: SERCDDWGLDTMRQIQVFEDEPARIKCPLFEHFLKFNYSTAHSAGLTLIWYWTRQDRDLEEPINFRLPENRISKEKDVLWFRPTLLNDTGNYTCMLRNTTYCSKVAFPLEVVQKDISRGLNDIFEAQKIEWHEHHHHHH


Legend:
[1] = biological target: T3, hIL-1RAP(1-367)_F-chLys_Avi (human, biotinylated (Avi tag) in SPR and ELISA binning; unlabeled in SET); assay: ELISA binning; competitor: coated Y024084 FabCys-AviHis (sheet title Y024084_FAB COATED); 1.5 nM biotinylated human IL-1RAcP (AG-12210) pre-incubated with the titrated Fab; captured IL-1RAcP detected with streptavidin-AP
T3 construct: also called human IL-1RAcP (AG-12210)
Description: (§1) Epitope binning was performed using an ELISA-based competition assay. The experiments were performed using either IgG1f_AEASS or FabCys-AviHis. Antibodies were diluted to three (3) nM (for IgGs) or to 20 nM (in case of Fabs) in PBS. […] The next day 90 μL/well blocking solution (5% BSA in PBS) was added to the plate followed by an incubation at RT for at least 1 h. During incubation, the competing antibodies, including reference and negative control antibodies, were diluted in assay buffer (1xPBS, 0.5% BSA, 0.02% Tween). […] Following the incubation of the blocking solution, the ELISA plates were washed 3× with PBST. Subsequently, 20 μl/well of the prepared antibody/antigen solution was transferred to the wells and incubated for 30 min with gentle agitation. Subsequently, plates were washed 3× using PBS-T.
(§2) For detection 20 μl of a prepared streptavidin-alkaline phosphatase conjugate solution was added to the wells in order to detect bound biotinylated human IL-1RAcP. Incubation happened for 30 min with gentle agitation. Following the incubation with streptavidin-alkaline phosphatase conjugate, assay plates were washed 5× with PBS-T. Then 20 μl of AttoPhos substrate (diluted 1:5 in H₂O) was added to the wells. Plates were incubated for 10 min at RT and readout happened using a Tecan M1000 Pro Reader.
(§3) Every graph represents an individual first antibody in the FabCys-AviHis format coated on the surface. […] Subsequently, preformed antigen antibody complex was added to the respective wells with the surface coated first antibody. Detection happened via the biotin of IL-1RAcP using a streptavidin-alkaline phosphatase conjugate.

[2] = biological target: T3, hIL-1RAP(1-367)_F-chLys_Avi; assay: ELISA binning; competitor: coated Y024148 FabCys-AviHis; 1.5 nM biotinylated human IL-1RAcP (AG-12210) pre-incubated with the titrated Fab; captured IL-1RAcP detected with streptavidin-AP
Description: as §1
For detection 20 μl of a prepared streptavidin-alkaline phosphatase conjugate solution was added to the wells in order to detect bound biotinylated human IL-1RAcP. Incubation happened for 30 min with gentle agitation. Following the incubation with streptavidin-alkaline phosphatase conjugate, assay plates were washed 5× with PBS-T. Then 20 μl of AttoPhos substrate (diluted 1:5 in H₂O) was added to the wells. Plates were incubated for 10 min at RT and readout happened using a Tecan M1000 Pro Reader. […]

[3] = biological target: T3, hIL-1RAP(1-367)_F-chLys_Avi; assay: ELISA binning; competitor: coated Y024149 FabCys-AviHis (sheet title Y024149_FAB COATED); 1.5 nM biotinylated human IL-1RAcP (AG-12210) pre-incubated with the titrated Fab; captured IL-1RAcP detected with streptavidin-AP
Description: as §1, §2, §3

[4] = biological target: T3, hIL-1RAP(1-367)_F-chLys_Avi; assay: ELISA binning; competitor: coated CAN04 FabCys-AviHis; 1.5 nM biotinylated human IL-1RAcP (AG-12210) pre-incubated with the titrated Fab; captured IL-1RAcP detected with streptavidin-AP
Description: as §1, §2, §3

[5] = biological target: T4, cyIL-1RAP(1-367)_F-chLys_Avi (cynomolgus, biotinylated (Avi tag) in SPR; unlabeled in SET); assay: SPR (Biacore), biotinylated antigen captured, FabCys-AviHis as analyte, 1:1 fit
T4 construct: cynomolgus IL-1RAcP (21-367) is UniProt A0A2K5X5J5; also called cynomolgus IL-1RAcP (AG-12211)
Description: (§4) Approximately 3000 RU capture reagent was bound. This surface was used to load biotinylated antigen to generate a low-density surface for subsequent kinetic characterization (approx. 60-100 RU antigen loaded). […] After injecting the last and highest analyte concentration, a long dissociation phase was recorded. […] A blank injection of assay buffer (HBS-EP+) following the same injection pattern as described above was recorded and subtracted from specific sensorgrams during analysis (double referencing). At the end of each cycle, the sensor was regenerated with one 120 s injection of 6 M guanidine hydrochloride in 250 mM NaOH, which completely removed capture reagent with loaded biotinylated antigen and bound Fab fragments. The obtained sensorgrams were fitted to a monovalent binding model using Biacore Insight Evaluation Software. The obtained values for rate constants kₒₙ and koff were used to calculate KD.

[6] = biological target: T3, hIL-1RAP(1-367)_F-chLys_Avi; assay: as above
Description: as §4

[7] = biological target: T5, human IL1RAcP domain 1/2 (AG-12337) (human); assay: ELISA on directly coated human IL-1RAcP domain 1/2 (AG-12337), IgG1f_AEASS titrated, S/BG
T5 construct: also called domain 1/2 of human IL-1RAcP

[8] = biological target: cynomolgus IL-1RAcP on cells (cynomolgus, UniProt A0A2K5X5J5 21-570); assay: cell-based or functional assay
[9] = biological target: human IL-1RAcP on cells (human, UniProt Q9NPH3 21-570); assay: cell-based or functional assay
[10] = biological target: T3, hIL-1RAP(1-367)_F-chLys_Avi; assay: solution equilibrium titration (SET), ECL read-out, IgG
Description: (§5) MSD SulfoTAG™ NHS-Ester (Meso Scale Diagnostics) according to the manufacturer's instructions. […] Serial dilutions of unlabeled antigen were prepared, starting with a concentration at least 10 times higher than the expected KD. Wells without antigen were used to determine Bₘₐₓ values;
(§6) wells containing only assay buffer were used to determine background. […] MSD plates were coated with antigen on standard plates (30 μL per well). After washing the plate with PBS with 0.05% Tween 20, the equilibrated samples were transferred to the plates and incubated for 20 min. […] After washing the MSD plate and adding 30 μL/well MSD Read Buffer T with surfactant, electrochemiluminescence signals were detected using a MESO SECTOR S 600 (Meso Scale Diagnostics).
(§7) The data was evaluated with XLfit (IDBS) software applying customized fitting models.

[11] = biological target: T1, human IL1RAcP domain 3 (AG-12127); assay: ELISA on directly coated human IL-1RAcP domain 3 (AG-12127), IgG titrated, S/BG
[12] = biological target: T2, human IL1RAcP domain 1 (AG-12335); assay: ELISA on directly coated human IL-1RAcP domain 1 (AG-12335), IgG titrated, S/BG
Description: All were assessed with direct coating of the antigen. […] An anti-His antibody served as positive control.

[13] = biological target: T4, cyIL-1RAP(1-367)_F-chLys_Avi; assay: solution equilibrium titration (SET), ECL read-out, IgG
Description: as §5, §6, §7

[14] = biological target: recombinant rat IL-1RAcP (rat, UniProt Q63621 21-367, limits assumed); assay: ELISA (FIG. 1-3 cited)
[15] = biological target: T3, hIL-1RAP(1-367)_F-chLys_Avi; assay: ELISA on human IL-1RAcP (AG-12210), IgG1f_AEASS titrated 0.007-200 nM, AP-coupled secondary antibody with AttoPhos, signal over background (S/BG)
Excerpt: (§8) Bound antibodies were detected using respective alkaline-phosphatase (AP) coupled secondary antibodies in combination with ‘AttoPhos’ fluorescence substrate. Multiple washing steps have been performed in between individual assay steps.

[16] = biological target: T6, mouse (AG-12212) IL-1RAcP (mouse, UniProt Q61730 21-367, limits assumed); assay: ELISA in Fc-capture mode of the IgGs, mouse IL-1RAcP (AG-12212), S/BG
T6 construct: Recombinant tagged antigen; also called recombinant mouse IL-1RAcP; mouse IL-1RAP
Excerpt: as §8

[17] = biological target: T4, cyIL-1RAP(1-367)_F-chLys_Avi; assay: ELISA on cynomolgus IL-1RAcP (AG-12211), IgG1f_AEASS titrated 0.007-200 nM, AP-coupled secondary antibody with AttoPhos, signal over background (S/BG)
Excerpt: as §8

[18] = biological target: T4, cyIL-1RAP(1-367)_F-chLys_Avi; assay: SET, ratio of KD values
[19] = biological target: T3, hIL-1RAP(1-367)_F-chLys_Avi; assay: SET, ratio of KD values

Binder	IC50 (read off the curve) [1] [nM]	IC50 (read off the curve) [3] [nM]	IC50 (read off the curve) [4] [nM]	Kd [5] [nM]	Kd [6] [nM]	EC50 (read off the curve) [7] [nM]	IC50, IL-8 release, CyDFa stimulated with cynomolgus IL-1β [8] [nM]	IC50, IFNγ release, PBMC stimulated with IL-1β [9] [nM]	IC50, IFNγ release, PBMC stimulated with IL-33 [9] [nM]	IC50, IL-8 release, HDFa stimulated with IL-1α [9] [nM]	IC50, IL-8 release, HDFa stimulated with IL-36α [9] [nM]	IC50, IL-8 release, HDFa stimulated with IL-36β [9] [nM]	IC50, IL-8 release, HDFa stimulated with IL-36γ [9] [nM]	IC50, IL-8 release, HEKa stimulated with IL-1β [9] [nM]	IC50, IL-8 release, HEKa stimulated with IL-36β [9] [nM]	Kd [10] [nM]	binding result [11]	binding result [12]	Kd [13] [nM]	EC50 (read off the curve) [15] [nM]	further results
1A05_rbh_FabCys-AviH (Fab, V domains shown, Tested as disulphide-linked Fab with Avi and His tags; also called 1A05 in FabCys-AviHis format; 1A05 (R001032)) VH: LEQSGGGAEGGLVKPGGSLELCCKASGFSLSTSYWRCWVRQAPGKGLEWIGCIYAGSGDVTYYANWVNGRFTLSRDIDQSTGCLQLNSLTAADTAMYYCASGVGFGYFNLWGQGTLVTVSS VL: ALVMTQTPSPVSAAVGGTVTINCQASEDIYSNLAWFQQKPGQPPKLLIYDASTLASGVPSRFSGSGSGTEFTLTISGLQSDDAATYYCLGVYTHISADNAFGGGTEVVVKR	~1	~1	~1	0.184	0.221																IC50 (read off the curve) [2]: ~1 nM
R001031 (CAN04) (antibody, human IgG1, kappa, V domains shown, Variable domains of prior art CAN04 on human IgG1 kappa constant regions with AEASS) VH: QVQLVQSGAEVKKPGSSVKVSCKASGYAFSSSWMNWVRQAPGQGLEWMGRIYPGDGNTHYAQKFQGRVTLTADKSTSTAYMELSSLRSEDTAVYYCGEGYLDPMDYWGQGTLVTVSS VL: DIQMTQSPSSLSASVGDRVTITCSASQGINNYLNWYQQKPGKAPKLLIHYTSGLHAGVPSRFSGSGSGTDYTLTISSLQPEDVATYYCQQYSILPWTFGGGTKVEIKR						~3	1	3.5	1.3	3.6	0.019	0.024	0.008	18	0.02	0.021	no binding (tested: 2e-7 M)	no binding (tested: 2e-7 M)	0.016		
Y024084_h_IgG1f_AEASS (antibody, V domains shown, also called Morphosys 24084; Mor Y024084) VH: QVQLVQSGAEVKKPGASVKVSCKASGYTFTSYYMHWVRQAPGQGLEWMGIINPSGGSTSYAQKFQGRVTMTRDTSTSTVYMELSSLRSEDTAVYYCARGFVTSGIDYWGQGTLVTVSS VL: QSVLTQPPSVSAAPGQKVTISCSGSSSNIGNNYVSWYQQLPGTAPKLLIYDNNKRPSGIPDRFSGSKSGTSATLGITGLQTEDEADYYCQTWTYTGRLWIVFGGGTKLTVLG						~3	0.12	5.2	0.69	20	0.025	0.033	0.022	19	0.029	0.004	no binding (tested: 2e-7 M)	no binding (tested: 2e-7 M)	0.004	0.1 to 0.2	EC50 (read off the curve) [17]: 0.1 to 0.2 nM

More lines, main results first:

IC50 (read off the curve) [1] [nM]	IC50 (read off the curve) [3] [nM]	IC50 (read off the curve) [4] [nM]	Kd [5] [nM]	Kd [6] [nM]	EC50 (read off the curve) [7] [nM]	IC50, IL-8 release, CyDFa stimulated with cynomolgus IL-1β [8] [nM]	IC50, IFNγ release, PBMC stimulated with IL-1β [9] [nM]	IC50, IFNγ release, PBMC stimulated with IL-33 [9] [nM]	IC50, IL-8 release, HDFa stimulated with IL-1α [9] [nM]	IC50, IL-8 release, HDFa stimulated with IL-36α [9] [nM]	IC50, IL-8 release, HDFa stimulated with IL-36β [9] [nM]	IC50, IL-8 release, HDFa stimulated with IL-36γ [9] [nM]	IC50, IL-8 release, HEKa stimulated with IL-1β [9] [nM]	IC50, IL-8 release, HEKa stimulated with IL-36β [9] [nM]	Kd [10] [nM]	binding result [11]	binding result [12]	Kd [13] [nM]	EC50 (read off the curve) [15] [nM]	Binder	further results
~1	~2	~1	0.128	0.167																CAN04_h_FabCys-AviH (Fab, V domains shown, Tested as disulphide-linked Fab with Avi and His tags; also called CAN04 in FabCys-AviHis format; CAN04 (R001031)) VH: QVQLVQSGAEVKKPGSSVKVSCKASGYAFSSSWMNWVRQAPGQGLEWMGRIYPGDGNTHYAQKFQGRVTLTADKSTSTAYMELSSLRSEDTAVYYCGEGYLDPMDYWGQGTLVTVSS VL: DIQMTQSPSSLSASVGDRVTITCSASQGINNYLNWYQQKPGKAPKLLIHYTSGLHAGVPSRFSGSGSGTDYTLTISSLQPEDVATYYCQQYSILPWTFGGGTKVEIKR	
						1	4.6	0.82	22	0.18	0.28	0.24	670	1.98	0.003			0.003		h11C5 YKD (antibody, human IgG1, kappa, V domains shown, Variable domains of h11C5 YKD on the same modified IgG1 kappa constant regions (AEASS); Printed as 'h1105' in much of the text; also called h1105) VH: EVQLVESGGGLVQPGGSLRLSCAASGFTFSNYAMSWVRQAPGKGLEWVATVTEGGDYNYYLDDVKGRFTISRDNAKNSLYLQMNSLRAEDTAVYYCARDDWPYFFDYWGQGTLVTVSS VL: DIQMTQSPSSLSASVGDRVTITCRASENIYSNLAWYQQKPGKSPKLLVYGYKNLADVPSRFSGSGSGTDYTLTISSLQPEDFATYYCQHFKTTPRTFGGGTKVEIKR	
					~6	0.043	1.2	0.72	1.2	0.014	0.039	0.042	35	0.2	0.002	no binding (tested: 2e-7 M)	no binding (tested: 2e-7 M)	0.001	0.1 to 0.2	Y024148_h_IgG1f_AEASS (antibody, V domains shown, Human IgG1f with AEASS effector-silencing residues, kappa light chain) VH: EVQLVESGGGLVQPGGSLRLSCAASGGTIGGSAVHWVRQAPGKGLVWVSRILTYSSTTQYAESVKGRFTISRDNAKNTLYLQMNSLRAEDTAVYYCARGSSEYPKFDIWGQGTLVTVSS VL: DIQMTQSPSTLSASVGDRVTITCRASQSISSWLAWYQQKPGKAPKLLIYDASSLESGVPSRFSGSGSGTEFTLTISSLQPEDFATYYCHQLLIYPHTFGQGTKVEIKR	binding result [14]: no binding; binding result [16]: no binding (tested: 200 nM); EC50 (read off the curve) [17]: 0.1 to 0.2 nM; fold stronger KD than reference R001031 (CAN04) [18]: ~16 fold; fold stronger KD than reference R001032 (1A05) [18]: ~15 fold; fold stronger KD than reference R001031 (CAN04) [19]: ~10.5 fold; fold stronger KD than reference R001032 (1A05) [19]: ~5.5 fold
